Measured values: the supplement of paper PMC10567573

B1: ATE1 (parent)
chain: DYFPSEDFYRCGYCKNESGSRSNG
B2: FADS1 (parent)
chain: LNFQIEHHLFPTMPRHNYHKVAPL

Variants of: B1
Test: protein stability index of a GFP-peptide fusion (GPS, HEK-293T) (PSI 1-6); higher = more stable
Details: c terminus: a fixed tail appended
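Note: lentivirally expressed fusions sorted by FACS into six bins by GFP to DsRed ratio, PSI derived from sequencing read proportions per bin multiplied by bin number.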

Protein stability index of substitutions, site by site:
F8: L 2.19; Q 2.81; C 2.54; N 2.16; P 3; D 2.44; I 2.35; V 3.1; G 2.48; A 2.32; H 2.19; K 2.49; T 2.63; E 3.77; R 2.91; M 2.56; Y 1.93
E6: A 1.81; V 1.45; R 1.53; P 2.24; C 1.85; M 2.38; S 1.8; Y 1.74; H 2.17; W 2.04; F 1.56; T 2.94; N 1.68; G 1.65; K 1.35; D 1.92; L 1.85; Q 1.92
Y2: K 2.38; A 3.05; R 4.56; V 2.18; H 2.37; S 2.44; L 2.43; E 2.63; M 1.36; G 2.56; D 2.53; W 1.24; F 1.82; N 2.36; I 2.09; P 2.64; C 2.82; T 2.63
D1: A 2.3; N 2; W 3.35; P 2.35; H 2.58; L 2.38; T 2.24; S 2.15; V 2.58; F 1.84; C 2.26; R 1.74; M 2.06; Q 1.89; K 2.28; E 1.65; Y 3.1; I 1.23
P4: T 2.26; S 3.09; W 1.08; D 2.07; E 2.21; N 2.16; K 1.92; I 1.45; R 1.79; Q 2.77; L 2.53; H 1.29; F 1.43; V 1.18; M 2.59; C 2.08
D7: F 1.17; P 2.71; T 2.15; L 2.29; Y 2.85; S 2.24; K 2.53; I 1.11; H 1.76; A 1.63; N 2.28; M 1.83; R 1.93; G 1.85; Q 3.11; W 1.7
R10: A 2.71
S5: H 1.98; P 2.32; R 1.7; C 1.52; A 2.19; I 1.88; N 1.61; F 2.01; D 2.46; T 2.15; K 2.02; M 1.42; Q 2.41; Y 2.83; L 1.61; V 2.16; G 2.17
Y9: C 3.12; F 1.92; L 2.01; Q 2.14; K 2.37; P 2.57; V 2.21; W 2.46; I 1.88; S 2.36; A 2.99; M 2.69; D 2.42; N 2.18; E 2.43; H 1.82; T 2.98
F3: S 2.83; H 1.8; W 2.85; K 2.44; R 2.58; M 2.99; A 2.45; I 2.27; C 1.49; D 2.61; Y 2.14; L 1.83; T 2.45; V 2.13; N 2.08; G 3.35; Q 3.12; P 3.21

Variants of: B2
Test: as above
Details: c terminus: a fixed tail appended

Protein stability index, by site and new letter:
R15: A 3.26; F 2.68; K 2.35; H 1.84; E 1.81; D 1.98; N 2.43; W 2.99; C 3.14; L 2.42; Q 1.33; G 3.15; S 2.95; T 2.55; I 2.88; V 2.01; Y 3.31
P14: V 2.38; Y 3.17
H16: L 1.96; P 2.19; S 1.28; C 3.19; K 1.22; N 2.2; G 1.24; T 1.77; M 4.22; Y 3.52; V 2.36; F 2.12; I 2.46; E 2.52; D 3.61; R 2.13
H19: I 3.24; G 3.11; L 1.54; D 3.43; R 1.88; N 2.27; K 2.3; V 2.8; S 2.35; M 3.8; A 2.85; E 2.25; F 1.81; W 3.52; Q 2; P 3.38; Y 2.58
Y18: P 2.99; W 2.78; N 1.81; F 2.72; T 2.27; H 1.6; G 1.81; S 1.69; I 2.23; V 1.51; A 2.95; E 2.65; C 2.42; R 1.64; K 2.25; D 1.44; Q 2.17; L 1.69; M 2.18
A22: Q 2.06; G 1.05; M 3.28; E 1.85; D 1.92; T 2.09; P 2.1; N 1.69; R 1.99; C 1.65; H 1.89; S 2.91; K 1.89; Y 2.21; I 3.37; F 1.78; W 2.34; V 2.82; L 2.05
V21: N 1.58; A 1.32; K 1.83; E 2.32; S 1.98; F 2.85; Q 1.46; D 2.41; R 1.7; C 2.38; I 3.07; W 2.14; H 1.92; P 2.39; M 2.5; G 2.38; L 2.24; Y 1.94; T 2.23
L24: S 1.15; I 3.69; F 2.15; N 2.15; G 2.35; P 2.3; M 1.81; T 1.56; H 2.27; V 1.5; E 2.33; R 1.51; Q 2.02; D 2.03; Y 3.02; A 1.71; C 2.52; K 1.79; W 2.03
K20: H 1.46; E 1.94; C 2.2; T 1.79; I 2.65; P 2.71; D 2.29; N 2.58; A 1.9; Y 3.23; V 1.2; M 2.3; Q 3.36; G 1.99; R 2.76; L 3.03
P23: I 2.42; G 2.97; E 2.21; C 1.88; W 2.27; M 2.06; L 2.4; Y 1.79; R 1.69; Q 2.63; K 1.54; A 2.81; D 1.33; S 1.88; N 2.09
N17: D 2.28; E 2.35; W 2.84; R 2.48; M 1.58; V 1.43; F 2.83; I 1.5; Y 2.39; Q 2.33; A 1.98; C 3.44; H 1.81; S 2.02; K 1.27; L 3.08; G 1.27; T 2.19; P 2.71
